Assay results as given in publication PMC5932954, “Evaluation of Fluorine-18-Labeled α1(I)-N-Telopeptide Analogs as Substrate-Based Radiotracers for PET Imaging of Melanoma-Associated Lysyl Oxidase” (Frontiers in Chemistry, 2018).
One block for each molecule: values may come before it. Where a SMILES comes first, the peptide text is derived from it. [ ]: non-standard residue; d: D form. The star is where a group is joined. Benzoyl(4-F) = O=C(c1ccc(F)cc1)*; pGlu = O=C1CC[C@@H](C(=O)O)N1

How the values were obtained:
[1] = molecular target: T1, bovine type I atelocollagen (Bos taurus, UniProt P02453+P02465, DEL1103-1117); assay: SPR binding of telopeptide derivatives to immobilized atelocollagen; settings: for ka1: SPR Biacore T100, CM5 chip, analyte 45 to 950 μM, HEPES buffer pH 7.4, 25°C; for ka1 / ka2 / kd1 / kd2: two-state reaction model, mean of n = 5; for ka2 / kd1 / kd2 / Kd / kon / koff: SPR; for ka2 / kd1 / kd2 / Kd: pH 7.4, 25°C; for Kd: calculated from the individual rate constants (Equation 1); for Kd / kon / koff: n = 5; for kon: calculated as koff/KD (Equation 3), read-out: kon (global association rate constant to final complex); for koff: calculated from the individual rate constants (Equation 2), read-out: koff (global dissociation rate constant of final complex)
T1 construct: bovine type I atelocollagen (=pepsin-treated type I collagen; Matrix Bioscience); purchased Matrix Bioscience
T1 sequence (P02453 178-1191 limits assumed, stated change not applied): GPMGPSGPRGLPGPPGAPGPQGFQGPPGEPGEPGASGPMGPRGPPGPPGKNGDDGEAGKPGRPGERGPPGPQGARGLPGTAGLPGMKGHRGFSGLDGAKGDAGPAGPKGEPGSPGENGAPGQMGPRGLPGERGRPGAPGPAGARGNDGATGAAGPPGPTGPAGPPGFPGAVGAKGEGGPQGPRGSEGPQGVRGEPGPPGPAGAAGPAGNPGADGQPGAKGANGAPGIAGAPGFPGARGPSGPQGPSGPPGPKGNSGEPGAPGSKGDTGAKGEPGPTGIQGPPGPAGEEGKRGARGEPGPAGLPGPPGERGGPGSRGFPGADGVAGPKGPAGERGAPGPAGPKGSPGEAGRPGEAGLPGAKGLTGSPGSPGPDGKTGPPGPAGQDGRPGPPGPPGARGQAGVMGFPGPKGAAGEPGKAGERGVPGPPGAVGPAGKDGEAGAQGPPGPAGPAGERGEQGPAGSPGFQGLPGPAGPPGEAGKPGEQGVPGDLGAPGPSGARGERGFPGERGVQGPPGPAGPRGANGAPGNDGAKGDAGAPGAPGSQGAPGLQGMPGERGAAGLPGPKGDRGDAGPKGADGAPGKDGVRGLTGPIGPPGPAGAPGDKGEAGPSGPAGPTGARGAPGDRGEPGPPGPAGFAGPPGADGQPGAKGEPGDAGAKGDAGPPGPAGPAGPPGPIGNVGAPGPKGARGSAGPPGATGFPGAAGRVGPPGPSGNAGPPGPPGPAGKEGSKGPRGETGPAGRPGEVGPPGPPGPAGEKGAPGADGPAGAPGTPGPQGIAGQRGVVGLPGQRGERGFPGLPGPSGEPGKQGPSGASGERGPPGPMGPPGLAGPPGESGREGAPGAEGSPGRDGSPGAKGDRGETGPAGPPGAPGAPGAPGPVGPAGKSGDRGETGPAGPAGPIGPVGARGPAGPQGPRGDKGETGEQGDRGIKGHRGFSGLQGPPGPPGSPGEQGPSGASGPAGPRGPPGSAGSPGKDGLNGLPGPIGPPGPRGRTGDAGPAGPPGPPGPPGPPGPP
T1 sequence (P02465 89-1102 limits assumed, stated change not applied): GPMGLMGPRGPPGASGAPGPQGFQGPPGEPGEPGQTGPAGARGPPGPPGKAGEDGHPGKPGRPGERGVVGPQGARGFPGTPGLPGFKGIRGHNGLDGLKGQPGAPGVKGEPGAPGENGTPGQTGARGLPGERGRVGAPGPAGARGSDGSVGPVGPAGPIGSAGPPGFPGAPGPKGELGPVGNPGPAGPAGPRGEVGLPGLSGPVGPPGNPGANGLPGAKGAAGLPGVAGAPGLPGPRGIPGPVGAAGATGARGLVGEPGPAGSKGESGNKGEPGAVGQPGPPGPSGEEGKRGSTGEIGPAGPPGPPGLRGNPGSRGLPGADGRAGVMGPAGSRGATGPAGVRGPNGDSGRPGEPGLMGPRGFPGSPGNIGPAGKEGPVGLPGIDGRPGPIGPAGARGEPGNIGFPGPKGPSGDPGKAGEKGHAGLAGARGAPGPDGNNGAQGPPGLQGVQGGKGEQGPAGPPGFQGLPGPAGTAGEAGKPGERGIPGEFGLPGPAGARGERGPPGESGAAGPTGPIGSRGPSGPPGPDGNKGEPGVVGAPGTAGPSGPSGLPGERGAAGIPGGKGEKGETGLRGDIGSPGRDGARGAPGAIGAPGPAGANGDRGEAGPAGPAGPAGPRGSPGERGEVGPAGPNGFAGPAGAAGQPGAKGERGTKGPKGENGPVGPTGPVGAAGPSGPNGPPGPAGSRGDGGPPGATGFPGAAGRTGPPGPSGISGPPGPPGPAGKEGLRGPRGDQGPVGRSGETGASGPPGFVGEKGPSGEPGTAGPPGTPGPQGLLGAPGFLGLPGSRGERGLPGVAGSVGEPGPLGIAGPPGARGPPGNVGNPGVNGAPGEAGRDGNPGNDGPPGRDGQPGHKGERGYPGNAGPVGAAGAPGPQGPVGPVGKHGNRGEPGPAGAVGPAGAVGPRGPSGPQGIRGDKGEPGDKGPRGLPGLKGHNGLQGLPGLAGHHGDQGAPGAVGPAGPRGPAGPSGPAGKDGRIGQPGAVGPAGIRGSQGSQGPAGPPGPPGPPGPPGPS
Protocol: In order to probe binding of the telopeptide derivatives to atelocollagen surface plasmon resonance (SPR) measurements were performed on a T100 Biacore system (GE Healthcare) (Hoppmann et al., [2010]). In brief, bovine type I atelocollagen (=pepsin-treated type I collagen; Matrix Bioscience) was immobilized as ligand on a CM5 (carboxymethylated dextran polymer) sensor chip using EDC/NHS chemistry. About 12,000 arbitrary response (resonance) units (RU) were immobilized. Various concentrations of the analytes (1, 2, and 4a) ranging from 45 to 950 μM were analyzed. The flow buffer used was 10 mM HEPES, 3.0 mM EDTA-Na2, 0.15 M NaCl (pH 7.4) containing 0.05% surfactant P20. Association and dissociation of all analytes was followed in real-time and measured at 25°C at a flow rate of 30 μL/min. After each cycle, the surface was regenerated using 50 mM NaOH. The data were fitted to a two-state reaction model (see scheme below) including reference subtraction and blank buffer correction derived from blank runs using the Biacore Evaluation software 2.0.4.
The parameters KD, koff, and kon were calculated from the individual rate constants by the following equations (Tummino and Copeland, [2008]): […]

[2] = molecular target: bovine type I atelocollagen (pepsin-treated bovine type I collagen) (bovine); assay: SPR; Biacore T100; bovine type I atelocollagen immobilised on a CM5 chip by EDC/NHS (about 12,000 RU); peptides as analytes, 45 to 950 μM; 10 mM HEPES, 3.0 mM EDTA-Na2, 0.15 M NaCl, pH 7.4, 0.05% surfactant P20; 25°C; 30 μL/min; two-state reaction model; KD, koff and kon calculated from the individual rate constants; settings: both partners purified

Molecule: CC[C@H](C)[C@H](NC(=O)CNC(=O)[C@@H](NC(=O)[C@H](CO)NC(=O)[C@H](CCCCN)NC(=O)[C@H](CCC(=O)O)NC(=O)[C@H](CC(=O)O)NC(=O)[C@H](Cc1ccc(O)cc1)NC(=O)CNC(=O)[C@H](Cc1ccc(O)cc1)NC(=O)[C@H](CO)NC(=O)[C@H](CC(C)C)NC(=O)[C@@H]1CCC(=O)N1)[C@@H](C)O)C(=O)N[C@@H](CO)C(=O)N[C@H](C(=O)N1CCC[C@H]1C(N)=O)C(C)C [Peptide 1, pGlu-LSYGYDEKSTGISVP-NH2, reference compound] ([pGlu]LSYGYDEKSTGISVP-NH2)
ka1 [1]: 123 M⁻¹ s⁻¹
ka2 [1]: 0.00532 s⁻¹
kd1 [1]: 0.75 s⁻¹
kd2 [1]: 0.00294 s⁻¹
Kd [1]: 2170 µM
kon [1]: 1.34 M⁻¹ s⁻¹
koff [1]: 0.00291 s⁻¹

B2: 4-fluorobenzoylated α1(I)-N-telopeptide analog (peptide 2), FBz-LSYGYDEKSTGISVP-NH2 (peptide)
peptide: {Benzoyl(4-F)}-LSYGYDEKSTGISVP-NH2
SMILES: CC[C@H](C)[C@H](NC(=O)CNC(=O)[C@@H](NC(=O)[C@H](CO)NC(=O)[C@H](CCCCN)NC(=O)[C@H](CCC(=O)O)NC(=O)[C@H](CC(=O)O)NC(=O)[C@H](Cc1ccc(O)cc1)NC(=O)CNC(=O)[C@H](Cc1ccc(O)cc1)NC(=O)[C@H](CO)NC(=O)[C@H](CC(C)C)NC(=O)c1ccc(F)cc1)[C@@H](C)O)C(=O)N[C@@H](CO)C(=O)N[C@H](C(=O)N1CCC[C@H]1C(N)=O)C(C)C
notes: N-terminal telopeptide of the α1 chain of type I collagen without its N-terminal pyroglutamate, which is replaced by a 4-fluorobenzoyl residue; source: synthetic peptide (microwave-assisted Fmoc solid-phase synthesis, as in Kuchar et al., 2012)
Kd [2]: 78.8 µM
ka1 (two-state model, step 1) [2]: 57.4 M⁻¹ s⁻¹
ka2 (two-state model, step 2) [2]: 0.0141 s⁻¹
kd1 (two-state model, step 1) [2]: 0.0631 s⁻¹
kd2 (two-state model, step 2) [2]: 0.00109 s⁻¹
koff [2]: 0.000879 s⁻¹
kon [2]: 11.2 M⁻¹ s⁻¹

B3: DPK-containing undecapeptide 4a, FBz-GGGDPKGGGGG-NH2 (peptide)
chain: {Benzoyl(4-F)}-GGGDPKGGGGG-NH2
SMILES: NCCCC[C@H](NC(=O)[C@@H]1CCCN1C(=O)[C@H](CC(=O)O)NC(=O)CNC(=O)CNC(=O)CNC(=O)c1ccc(F)cc1)C(=O)NCC(=O)NCC(=O)NCC(=O)NCC(=O)NCC(N)=O
Kd [2]: 647 µM
ka1 (two-state model, step 1) [2]: 188 M⁻¹ s⁻¹
ka2 (two-state model, step 2) [2]: 0.00494 s⁻¹
kd1 (two-state model, step 1) [2]: 0.268 s⁻¹
kd2 (two-state model, step 2) [2]: 0.00411 s⁻¹
koff [2]: 0.00398 s⁻¹
kon [2]: 6.15 M⁻¹ s⁻¹

More lines, now with the values ahead:

Kd [1]: 78.8 µM
kon [1]: 11.2 M⁻¹ s⁻¹
koff [1]: 0.000879 s⁻¹
Molecule: CC[C@H](C)[C@H](NC(=O)CNC(=O)[C@@H](NC(=O)[C@H](CO)NC(=O)[C@H](CCCCN)NC(=O)[C@H](CCC(=O)O)NC(=O)[C@H](CC(=O)O)NC(=O)[C@H](Cc1ccc(O)cc1)NC(=O)CNC(=O)[C@H](Cc1ccc(O)cc1)NC(=O)[C@H](CO)NC(=O)[C@H](CC(C)C)NC(=O)c1ccc(F)cc1)[C@@H](C)O)C(=O)N[C@@H](CO)C(=O)N[C@H](C(=O)N1CCC[C@H]1C(N)=O)C(C)C [Peptide 2, FBz-LSYGYDEKSTGISVP-NH2] ({Benzoyl(4-F)}-LSYGYDEKSTGISVP-NH2)

ka1 [1]: 188 M⁻¹ s⁻¹
ka2 [1]: 0.00494 s⁻¹
kd1 [1]: 0.268 s⁻¹
kd2 [1]: 0.00411 s⁻¹
kon [1]: 6.15 M⁻¹ s⁻¹
koff [1]: 0.00398 s⁻¹
Molecule: NCCCC[C@H](NC(=O)[C@@H]1CCCN1C(=O)[C@H](CC(=O)O)NC(=O)CNC(=O)CNC(=O)CNC(=O)c1ccc(F)cc1)C(=O)NCC(=O)NCC(=O)NCC(=O)NCC(=O)NCC(N)=O [Peptide 4a, FBz-GGGDPKGGGGG-NH2] ({Benzoyl(4-F)}-GGGDPKGGGGG-NH2)

Kd [2]: 2170 µM
ka1 (two-state model, step 1) [2]: 123 M⁻¹ s⁻¹
ka2 (two-state model, step 2) [2]: 0.00532 s⁻¹
kd1 (two-state model, step 1) [2]: 0.75 s⁻¹
kd2 (two-state model, step 2) [2]: 0.00294 s⁻¹
koff [2]: 0.00291 s⁻¹
kon [2]: 1.34 M⁻¹ s⁻¹
B1: α1(I)-N-telopeptide (peptide 1), pGlu-LSYGYDEKSTGISVP-NH2 (peptide)
peptide: [pGlu]LSYGYDEKSTGISVP-NH2
SMILES: CC[C@H](C)[C@H](NC(=O)CNC(=O)[C@@H](NC(=O)[C@H](CO)NC(=O)[C@H](CCCCN)NC(=O)[C@H](CCC(=O)O)NC(=O)[C@H](CC(=O)O)NC(=O)[C@H](Cc1ccc(O)cc1)NC(=O)CNC(=O)[C@H](Cc1ccc(O)cc1)NC(=O)[C@H](CO)NC(=O)[C@H](CC(C)C)NC(=O)[C@@H]1CCC(=O)N1)[C@@H](C)O)C(=O)N[C@@H](CO)C(=O)N[C@H](C(=O)N1CCC[C@H]1C(N)=O)C(C)C
notes: N-terminal telopeptide of the α1 chain of type I collagen; also called N-terminal telopeptide of the α1 chain of type I collagen; authentic isolated α1(I)-N-telopeptide; source: synthetic peptide (microwave-assisted Fmoc solid-phase synthesis)
